# Measured values published in publication PMC12151148 (2024).
# No end group written: not given here.
# T1: AGS3 (Homo sapiens, UniProt Q86YR5)
# T1 chain: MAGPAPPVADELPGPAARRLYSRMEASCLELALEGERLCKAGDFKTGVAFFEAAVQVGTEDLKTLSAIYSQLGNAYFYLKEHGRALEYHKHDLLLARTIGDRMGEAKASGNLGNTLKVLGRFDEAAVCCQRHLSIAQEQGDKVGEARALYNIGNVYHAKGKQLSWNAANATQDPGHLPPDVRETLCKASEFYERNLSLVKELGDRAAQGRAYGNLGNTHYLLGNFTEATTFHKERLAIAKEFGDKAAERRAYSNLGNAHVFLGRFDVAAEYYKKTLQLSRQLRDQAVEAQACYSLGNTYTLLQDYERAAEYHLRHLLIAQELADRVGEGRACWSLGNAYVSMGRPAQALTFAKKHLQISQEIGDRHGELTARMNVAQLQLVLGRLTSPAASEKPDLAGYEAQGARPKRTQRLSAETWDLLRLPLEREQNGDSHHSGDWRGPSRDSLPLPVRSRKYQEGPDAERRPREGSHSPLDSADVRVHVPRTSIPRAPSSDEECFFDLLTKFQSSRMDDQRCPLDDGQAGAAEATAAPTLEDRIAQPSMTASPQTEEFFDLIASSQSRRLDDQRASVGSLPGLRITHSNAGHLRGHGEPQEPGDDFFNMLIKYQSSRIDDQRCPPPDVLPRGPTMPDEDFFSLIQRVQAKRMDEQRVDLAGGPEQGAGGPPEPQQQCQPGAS
# T2: LGN (Homo sapiens, UniProt P81274)
# T2 chain: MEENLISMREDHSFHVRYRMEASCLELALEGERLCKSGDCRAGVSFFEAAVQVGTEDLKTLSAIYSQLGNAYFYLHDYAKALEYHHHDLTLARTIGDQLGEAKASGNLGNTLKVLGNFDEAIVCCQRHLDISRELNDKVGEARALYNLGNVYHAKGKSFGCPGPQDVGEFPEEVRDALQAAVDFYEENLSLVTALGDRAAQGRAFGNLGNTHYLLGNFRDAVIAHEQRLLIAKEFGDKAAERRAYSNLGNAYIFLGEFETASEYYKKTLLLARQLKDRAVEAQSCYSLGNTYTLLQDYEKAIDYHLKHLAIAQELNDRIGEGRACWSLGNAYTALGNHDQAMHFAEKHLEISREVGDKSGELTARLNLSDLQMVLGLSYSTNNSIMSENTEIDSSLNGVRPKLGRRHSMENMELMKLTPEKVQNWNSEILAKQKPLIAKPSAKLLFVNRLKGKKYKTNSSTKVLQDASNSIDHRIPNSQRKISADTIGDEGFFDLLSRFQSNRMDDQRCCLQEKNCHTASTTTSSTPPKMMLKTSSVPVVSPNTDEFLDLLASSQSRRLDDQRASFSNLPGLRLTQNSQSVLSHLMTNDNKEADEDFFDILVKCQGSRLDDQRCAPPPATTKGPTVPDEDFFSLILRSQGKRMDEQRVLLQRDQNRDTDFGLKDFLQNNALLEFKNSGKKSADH
# T3: LGN-TPR (1–409) (mouse)
# T3 chain: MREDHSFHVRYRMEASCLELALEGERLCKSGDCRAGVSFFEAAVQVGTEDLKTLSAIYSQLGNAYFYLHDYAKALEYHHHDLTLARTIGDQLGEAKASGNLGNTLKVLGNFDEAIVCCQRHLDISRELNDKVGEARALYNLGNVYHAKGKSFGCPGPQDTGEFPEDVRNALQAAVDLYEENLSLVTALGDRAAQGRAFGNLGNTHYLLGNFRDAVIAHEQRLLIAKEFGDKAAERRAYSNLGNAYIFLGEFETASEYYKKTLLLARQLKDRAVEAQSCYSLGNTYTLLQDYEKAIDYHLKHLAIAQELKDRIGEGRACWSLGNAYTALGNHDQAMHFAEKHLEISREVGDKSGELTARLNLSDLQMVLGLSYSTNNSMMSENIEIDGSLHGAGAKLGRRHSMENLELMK
# T4: Gαi3⋅GDP (human, UniProt P08754 1-354)
# T4 chain: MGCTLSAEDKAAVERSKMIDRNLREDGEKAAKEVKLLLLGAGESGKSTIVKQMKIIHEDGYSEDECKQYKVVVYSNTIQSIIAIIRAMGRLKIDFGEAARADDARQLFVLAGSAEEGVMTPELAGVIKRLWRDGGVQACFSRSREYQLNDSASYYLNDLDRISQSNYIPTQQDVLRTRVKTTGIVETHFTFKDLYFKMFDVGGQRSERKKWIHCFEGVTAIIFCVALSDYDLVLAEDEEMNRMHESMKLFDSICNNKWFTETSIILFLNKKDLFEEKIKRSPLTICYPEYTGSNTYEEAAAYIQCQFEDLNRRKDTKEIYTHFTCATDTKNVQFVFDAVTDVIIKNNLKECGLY
# T5: AGS3-L (−23–405) (mouse)
# T5 chain: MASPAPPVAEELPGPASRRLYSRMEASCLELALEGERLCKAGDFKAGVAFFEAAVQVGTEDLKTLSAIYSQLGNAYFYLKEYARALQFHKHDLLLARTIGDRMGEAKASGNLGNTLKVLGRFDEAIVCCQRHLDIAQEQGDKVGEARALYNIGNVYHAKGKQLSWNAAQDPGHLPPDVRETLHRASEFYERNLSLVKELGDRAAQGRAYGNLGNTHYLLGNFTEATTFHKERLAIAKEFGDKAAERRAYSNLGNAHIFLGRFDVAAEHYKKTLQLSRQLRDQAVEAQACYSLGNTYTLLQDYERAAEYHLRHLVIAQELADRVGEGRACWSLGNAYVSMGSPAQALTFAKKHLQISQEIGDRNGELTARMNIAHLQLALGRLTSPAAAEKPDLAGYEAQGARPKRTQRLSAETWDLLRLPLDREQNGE
# T6: FL-AGS3-4E (mouse, UniProt Q6IR34)
# T6 sequence (Q6IR34 whole entry, looked up): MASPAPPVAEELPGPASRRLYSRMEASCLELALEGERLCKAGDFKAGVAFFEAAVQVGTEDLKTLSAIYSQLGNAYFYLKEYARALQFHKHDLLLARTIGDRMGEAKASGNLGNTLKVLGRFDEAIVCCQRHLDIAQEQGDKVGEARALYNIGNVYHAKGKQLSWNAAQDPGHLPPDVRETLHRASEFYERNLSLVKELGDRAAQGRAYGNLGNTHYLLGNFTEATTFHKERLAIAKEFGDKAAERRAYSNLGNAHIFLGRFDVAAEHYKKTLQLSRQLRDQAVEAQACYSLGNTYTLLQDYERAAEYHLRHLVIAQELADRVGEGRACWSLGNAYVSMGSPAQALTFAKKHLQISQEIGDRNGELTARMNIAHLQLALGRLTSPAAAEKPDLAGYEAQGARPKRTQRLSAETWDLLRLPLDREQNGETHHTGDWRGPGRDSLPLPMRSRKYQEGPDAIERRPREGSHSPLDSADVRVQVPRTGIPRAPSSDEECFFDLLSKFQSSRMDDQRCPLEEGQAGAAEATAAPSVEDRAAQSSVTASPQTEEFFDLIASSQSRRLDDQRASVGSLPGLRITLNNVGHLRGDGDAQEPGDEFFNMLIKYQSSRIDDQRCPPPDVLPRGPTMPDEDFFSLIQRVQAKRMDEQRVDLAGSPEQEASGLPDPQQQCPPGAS
# T7: FL-LGN-4E (mouse, UniProt Q8VDU0)
# T7 sequence (Q8VDU0 whole entry, looked up): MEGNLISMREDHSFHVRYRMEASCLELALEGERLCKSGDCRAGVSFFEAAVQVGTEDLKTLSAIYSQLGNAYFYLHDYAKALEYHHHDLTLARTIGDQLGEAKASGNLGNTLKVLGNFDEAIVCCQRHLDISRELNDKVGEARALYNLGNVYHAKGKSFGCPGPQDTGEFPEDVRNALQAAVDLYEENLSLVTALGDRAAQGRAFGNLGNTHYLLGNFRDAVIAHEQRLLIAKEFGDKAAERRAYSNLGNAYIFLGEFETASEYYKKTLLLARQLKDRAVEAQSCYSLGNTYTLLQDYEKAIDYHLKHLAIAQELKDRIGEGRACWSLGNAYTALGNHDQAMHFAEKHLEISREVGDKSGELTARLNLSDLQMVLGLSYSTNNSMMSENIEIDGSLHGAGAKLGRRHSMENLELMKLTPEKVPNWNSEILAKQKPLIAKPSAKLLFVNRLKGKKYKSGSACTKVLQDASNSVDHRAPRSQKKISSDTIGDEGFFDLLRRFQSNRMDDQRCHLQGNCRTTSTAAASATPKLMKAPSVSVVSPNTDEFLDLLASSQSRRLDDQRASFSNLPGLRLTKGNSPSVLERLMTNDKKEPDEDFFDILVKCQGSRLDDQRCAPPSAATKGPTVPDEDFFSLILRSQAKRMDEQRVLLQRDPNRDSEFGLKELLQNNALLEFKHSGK
# B1: Insc 18-66 (peptide)
# chain: WGLWGVQESRRLCCAGHDRCKQALLQIGINMMALPGGRHLDSVTLPGQR
# B2: Insc 18-66 (peptide)
# chain: B1 chain
# modifications: not fully specified; cysteine pairing not given here
# B3: NuMA (1886–1912) (domain or fragment)
# chain: NSFYMGTCQDEPEQLDDWNRIAELQQR
# B4: LGN GL1 motif (domain or fragment)
# chain: DEGFFDLLRRFQSNRMDDQRCHL
# B5: AGS3 GL3 motif (domain or fragment)
# chain: GDEFFNMLIKYQSSRIDDQRCPP
# B6: AGS3 GL2 motif (domain or fragment)
# chain: TEEFFDLIASSQSRRLDDQRASV
# B7: LGN GL2 motif (domain or fragment)
# chain: TDEFLDLLASSQSRRLDDQRASF
# B8: AGS3 GL1 motif (domain or fragment)
# chain: EECFFDLLSKFQSSRMDDQRCPL
# B9: AGS3 GL4 motif (domain or fragment)
# chain: DEDFFSLIQRVQAKRMDEQRVDL
# B10: LGN-GL1234 (483–650) (domain or fragment)
# chain: DEGFFDLLRRFQSNRMDDQRCHLQGNCRTTSTAAASATPKLMKAPSVSVVSPNTDEFLDLLASSQSRRLDDQRASFSNLPGLRLTKGNSPSVLERLMTNDKKEPDEDFFDILVKCQGSRLDDQRCAPPSAATKGPTVPDEDFFSLILRSQAKRMDEQRVLLQRDPNRD
# B11: LGN GL3 motif (domain or fragment)
# chain: DEDFFDILVKCQGSRLDDQRCAP
# B12: AGS3-GL1234 (470–631) (domain or fragment)
# chain: EECFFDLLSKFQSSRMDDQRCPLEEGQAGAAEATAAPSVEDRAAQSSVTASPQTEEFFDLIASSQSRRLDDQRASVGSLPGLRITLNNVGHLRGDGDAQEPGDEFFNMLIKYQSSRIDDQRCPPPDVLPRGPTMPDEDFFSLIQRVQAKRMDEQRVDLAGSP
# B13: LGN GL4 motif (domain or fragment)
# chain: DEDFFSLILRSQAKRMDEQRVLL
# Target: T1, AGS3
# Assay: not given
row,Binder,Kd
1,B1,2270 nM
2,B2,2290 nM

# Target: T2, LGN
# Assay: not given
row,Binder,Kd
1,B1,3.92 µM
2,B2,2.62 µM

# Target: T3, LGN-TPR (1–409)
# Assay: ITC
row,Binder,Kd
1,B3,630 nM

# Target: T4, Gαi3⋅GDP
# Assay: ITC
row,Binder,Kd
1,B4,330 nM
2,B5,260 nM
3,B6,36.5 nM
4,B7,41.5 nM
5,B8,300 nM
6,B9,320 nM

# Target: T5, AGS3-L (−23–405)
# Assay: ITC
row,Binder,Kd
1,B3,240 nM

# Target: T6, FL-AGS3-4E
# Assay: ITC
row,Binder,Kd
1,B3,280 nM

# Target: T7, FL-LGN-4E
# Assay: ITC
row,Binder,Kd
1,B3,200 nM

# Target: T4, Gαi3⋅GDP
# Assay: ITC; GDP
row,Binder,Kd
1,B10,260 nM
2,B4,330 nM
3,B11,40 nM
4,B5,260 nM
5,B6,40 nM
6,B12,280 nM
7,B7,40 nM
8,B13,200 nM
9,B8,300 nM
10,B9,330 nM
